Molecular target: GST-PfPP1c (P. falciparum)

Row | pNPP dephosphorylation activity of recombinant PfPP1c (40 pmol, without GST) pre-incubated 30 min at 37°C with different amounts of PbGEXP15 (4–178); concentration-dependent increase | pNPP dephosphorylation activity of recombinant PfPP1c (40 pmol, without GST) pre-incubated 30 min at 37°C with different amounts of PbGEXP15 (4–590); concentration-dependent increase | Substance
1 | 2 fold |  | 6-His PbGEXP15 (4–178) (domain or fragment)
2 |  | 2 fold | 6-His PbGEXP15 (4–590) (domain or fragment)
